Experimental data published in patent US11464867B2, “Multimeric elastin-like polypeptides” (University of Southern California, priority 2018, dated 2022).
Several values for one entry are separate records, joined by “and”; a condition that tells them apart may be missing. Equal entries are not always repeated. Entries after “also recorded” stand apart in the source; their conditions may differ.

Tests used:
[1] = Phase transition temperature by optical density (UV-Vis, 350 nm) versus temperature; type: physicochemical; conditions: mean ± 95% CI, Table 2
Experimental: The temperature with the maximum positive slope was defined as the phase transition temperature for each condition. (FIG. 2B) The concentration-temperature phase diagram was determined for both ELPs, and fit to the following equation: Tt=b−m Log10[CELP].
Both ELPs at different concentrations (5 μM to 100 μM) were subject to a precisely controlled temperature increase from 25 to 75° C. at a rate of 1° C./min. The Tt of ELPs is defined as the temperature at which the first derivative of the optical density with respect to the temperature reaches a maximum.

[2] = Dynamic light scattering (DLS) hydrodynamic radius and stability; type: physicochemical; conditions: DLS intensity; 20 μM
Experimental: FIGS. 5A-5D: CA192 (SEQ ID NO: 3) has a good stability in terms of hydrodynamic radius. There are two fractions present in the CA192 (SEQ ID NO: 3) solution: an aggregated form and dimeric form. A dimerized form has similar hydrodynamic radius, Rh as A192. […] Drug-loaded CA192 (SEQ ID NO: 3) has a mean Rh of 64.5±0.5 nm (p<0.05). […] (FIG. 5C) Size Exclusion Chromatography (SEC) was conducted to fractionate CA192 (SEQ ID NO: 3) depending on their particle size. Two fractions were observed. […] In contrast, the fraction 1 contains a mixture of larger aggregates.
The hydrodynamic radius (Rh) of both the loaded and unloaded fusion protein, along with plain A192, was measured via dynamic light scattering (DLS) using a DynaPro Plate Reader II from Wyatt Technology. Before the DLS measurement, solutions were filtered through […] pore size filters. The concentration of each solution was then adjusted to 20 μM. 60 μL from each sample was pipetted into three different wells on the plate reader and covered by 15 μL mineral oil each to avoid solvent evaporation. […] Briefly, the fusion solution was incubated at 37° C. for different periods of time up to 48 h and the mean Rh of CA192 at these different time points was measured with DLS. […] (FIG. 5D) Through measuring the CA192 concentration of both fractions, Applicants determined that 20.8% by mass in solution is represented by the multimerized particles. […]

HeLa cells = experiment: HeLa cell uptake, co-localization with lysosomes (confocal microscopy); type: cell-based; conditions: 30 μM rhodamine-labeled ELP; 120 min; LysoTracker Green
Experimental: Lysosomes were labeled by LysoTracker Green® having the structure:
In order to further validate the potential efficacy of CA192 working as a potent drug binding domain, an in vitro cell uptake study was performed. Briefly, CA192 and A192 was labeled with rhodamine and HeLa cell lysosome with LysoTracker Green (LTG)® having the structure as described herein. For the treatment group, HeLa cells were incubated with 30 μM of rhodamine-labeled (rh)-CA192 and 70 nM of LTG for 120 min. For the control group, HeLa cells were incubated with 30 μM of rhodamine-labeled (rh)-A192 and 70 nM of LTG for 120 min. Cells were then rinsed with warm HBSS three times, maintained in the fresh culture medium, and imaged by confocal microscopy. Images were acquired using a Zeiss laser scanning microscope 510 Meta NLO confocal imaging system equipped with Argon, red HeNe, green HeNe laser, and a Coherent Chameleon Ti-Sapphire laser (LSM) mounted on a vibration-free table (Carl Zeiss, Thornwood, N.Y.). All images were acquired using a Plan-Apochromat 63× Oil immersion lens with a working distance of 0.19 mm.

[3] = ATRA encapsulation in 4PA, two phase method, HPLC; type: physicochemical; conditions: control ELP
Description: FIG. 21: SDS PAGE was used to resolve the purified 4PA fusion protein. To formulate ATRA-loaded 4PA, a two phase encapsulation method was adopted. After removing undissolved drug, HPLC was used to quantify 4PA and ATRA concentrations. Encapsulation ratio, defined as CATRA/C4PA was 2.7, theoretical maximum being 4.

B1: (VPGAG)192 (protein)
chain: VPGAGVPGAGVPGAGVPGAGVPGAGVPGAGVPGAGVPGAGVPGAGVPGAGVPGAGVPGAGVPGAGVPGAGVPGAGVPGAGVPGAGVPGAGVPGAGVPGAGVPGAGVPGAGVPGAGVPGAGVPGAGVPGAGVPGAGVPGAGVPGAGVPGAGVPGAGVPGAGVPGAGVPGAGVPGAGVPGAGVPGAGVPGAGVPGAGVPGAGVPGAGVPGAGVPGAGVPGAGVPGAGVPGAGVPGAGVPGAGVPGAGVPGAGVPGAGVPGAGVPGAGVPGAGVPGAGVPGAGVPGAGVPGAGVPGAGVPGAGVPGAGVPGAGVPGAGVPGAGVPGAGVPGAGVPGAGVPGAGVPGAGVPGAGVPGAGVPGAGVPGAGVPGAGVPGAGVPGAGVPGAGVPGAGVPGAGVPGAGVPGAGVPGAGVPGAGVPGAGVPGAGVPGAGVPGAGVPGAGVPGAGVPGAGVPGAGVPGAGVPGAGVPGAGVPGAGVPGAGVPGAGVPGAGVPGAGVPGAGVPGAGVPGAGVPGAGVPGAGVPGAGVPGAGVPGAGVPGAGVPGAGVPGAGVPGAGVPGAGVPGAGVPGAGVPGAGVPGAGVPGAGVPGAGVPGAGVPGAGVPGAGVPGAGVPGAGVPGAGVPGAGVPGAGVPGAGVPGAGVPGAGVPGAGVPGAGVPGAGVPGAGVPGAGVPGAGVPGAGVPGAGVPGAGVPGAGVPGAGVPGAGVPGAGVPGAGVPGAGVPGAGVPGAGVPGAGVPGAGVPGAGVPGAGVPGAGVPGAGVPGAGVPGAGVPGAGVPGAGVPGAGVPGAGVPGAGVPGAGVPGAGVPGAGVPGAGVPGAGVPGAGVPGAGVPGAGVPGAGVPGAGVPGAGVPGAGVPGAGVPGAGVPGAGVPGAGVPGAGVPGAGVPGAGVPGAGVPGAGVPGAGVPGAGVPGAGVPGAGVPGAGVPGAGVPGAGVPGAGVPGAGVPGAGVPGAGVPGAG
- Slope, m ([1]; fit Tt = b - m Log10[CELP]): 8.3 ± 0.28 ° C./Log10(μM)
- Intercept, b ([1]; intercept at 1 μM): 72.3 ± 0.41 °C
- mean hydrodynamic radius (Rh) [2]: 7.3±0.6 nm and 7.3±0.4 nm
- co-localization with lysosomes (HeLa cells): obvious co-localization with lysosome; also recorded: co-localized with lysosomes; also recorded: co-localizing with lysosomes
- ATRA peak on HPLC after encapsulation [3]: not detectable
